The conditions of series [1]: breast cancer patients; reported; cited from earlier work.
The next series concerns Mvt1 cells. The experiment in a line: Mvt1-generated syngeneic breast tumor model in HFD-induced obese mice. Type of series: in vivo, mouse. Conditions: HFD-induced obese FVB mice with Mvt1 tumors; nAb i.p. two times a week, alone or with reboxetine 20 mg/kg·bt i.p. twice a week. Here is the method: (§1) FIGS. 10C, 10D, 10E, 10F, and 10G show the analysis of body weight, vWAT mass (gm), tumor volume, tumor weight (gm), and Lung metastasis of VC, S100A7 nAb, Reb and combo-treated animals. *P<0.05, ** P<0.01. One way ANOVA was used for calculating statistical significance. Mouse models, obesity tumor growth analyses and flow cytometry. The NCG and wild-type 6 weeks old female FVB mice (6 weeks old) were obtained from the Charles River. S100A7 overexpressing MDA-MB-231 cells (1×10^6) were injected into the 4th mammary fat pad of NCG mice. While Mvt1 cells (1×10^5) were injected into the mammary fat pad of wild type FVB mice fed with HFD. […] Mvt-1 cells (1×10^5) were also injected into the mammary glands of S100A7 floxed (control) and KO mice. Body weights and tumors were measured weekly, and volume was calculated. In the endpoints, animals were sacrificed, and tumors and other organs were excised. All mice were kept in The OSU's animal facility in compliance with the guidelines and protocols approved by the OSU-IACUC. For flow cytometry, freshly prepared single-cell suspensions of spleen samples harvested from non-tumor bearing S100A7 floxed and KO mice were incubated with an Fc receptor blocker followed by staining with different fluorochrome-conjugated antibodies (Table 1). After staining, cells were evaluated by FACS Fortessa using CellQuest software (BD Biosciences)

The next series relates to PD-L1. Kind of series: S100A7-induced PD-L1 expression by Western blot. As to conditions: MDA-MB-231 cells; nAb clone 28F8-2 300 ng/μl; recombinant human S100A7 100 ng/ml; GAPDH loading control. The class given is cell-based. Here is the method:
(§2) MDA-MB-231 cells were treated with hS100A7 neutralizing antibody (clone 28F8-2; 300 ng/μl) or control IgG or PBS in the presence or absence of recombinant human S100A7 (100 ng/ml) and spheroid invasion assay was performed by using 3D-Cultrex spheroid invasion kit. […] FIG. 9B show the bar diagram representing the invaded area of spheroids. The area between red and blue circles represents the invaded area. […] GAPDH was used as a loading control. S100A7 overexpressing MDA-MB-231 cells (1×10^6) were injected into the female NCG mice. After the onset of palpable tumors, mice were either treated with vehicle control (VC), S100A7 nAb ([…], i.p. route; clone 28F8-2; two times a week) alone or in combination with ASB-14780 (50 mg/kg·bt, oral route; three times a week). […] FIGS. 9F, 9G, and 9H show the analysis of tumor volume, tumor weight, and liver metastasis of control IgG, S100A7 nAb, ASB-14780, and combination-treated. *** is p<0.001; **** is p<0.0001. One way ANOVA and t test were used for calculating statistical significance.
Western blotting, adipokine array and Immunohistochemistry (IHC). Cell or tissue lysates were analyzed by Western blotting. Briefly, samples were run on NuPAGE 4-12% gradient precast gels (Invitrogen) and probed with primary antibodies (Table 1), followed by secondary antibodies incubation, and were developed. […]
Background: A western blot detects proteins with antibodies after separation by electrophoresis.

The subject of series [2] is MDA-MB-231 cells. The experiment in a line: 3D-Spheroid invasion assay (3D-Cultrex spheroid invasion kit). Type of series: cell-based. Conditions: nAb clone 28F8-2 300 ng/μl; recombinant human S100A7 100 ng/ml; vs control IgG or PBS; invaded area on 10th day. The procedure:
as §2
(§3) Trans-well migration assay and 3D-Spheroid invasion assay. MDA-MB-231 cells were treated with hS100A7 neutralizing antibody (clone 28F8-2; 300 ng/μl) or control IgG or PBS in the presence or absence of recombinant human S100A7 (100 ng/ml). […] On the 10th day, the invaded area was calculated by using the image-J plugin.

A short description of series [3]: HFD-induced obesity in wild type female FVB mice. Type of series: in vivo, mouse. As to conditions: FVB mice on HFD; nAb i.p. two times a week, alone or with reboxetine 20 mg/kg·bt i.p. twice a week; vs control IgG treated group. The procedure: as §1
In series [4] the test system is MDA-MB-231 cells. The experiment in a line: Trans-well migration assay. As to conditions: nAb clone 28F8-2 300 ng/μl; recombinant human S100A7 100 ng/ml; overnight, transwell chambers. Type of series: cell-based. Here is the method: as §2, §3

For `CCOc1ccccc1OC(c1ccccc1)C1CNCCO1` (stereo not drawn) [reboxetine], in series [1], the depressive symptoms result is recorded as “reduces” and the tolerability entry was “well tolerated”.

B1: S100A7 nAb: novel monoclonal S100A7 neutralizing antibody, hybridoma clone 28F8-2; heavy chain SEQ ID NO: 4, light chain SEQ ID NO: 8 (antibody)
heavy: MRVLILLWLFTAFPGILSDVQLQESGPGLVKPSQSLSLTCTVTGYSITSDYAWNWIRQFPGNKLEWMGYISYSGYTSYNPSLKSRISITRDTSKNQFFLQLNSVTTEDTTTYYCTRGGKGPMDYWGQGTSVTVSSAKTTPPSVYPLAPGSAAQTNSMVTLGCLVKGYFPEPVTVTWNSGSLSSGVHTFPAVLQSDLYTLSSSVTVPSSTWPSETVTCNVAHPASSTKVDKKIVPRDCGCKPCICTVPEVSSVFIFPPKPKDVLTITLTPKVTCVVVDISKDDPEVQFSWFVDDVEVHTAQTQPREEQFNSTFRSVSELPIMHQDWLNGKEFKCRVNSAAFPAPIEKTISKTKGRPKAPQVYTIPPPKEQMAKDKVSLTCMITDFFPEDITVEWQWNGQPAENYKNTQPIMDTDGSYFVYSKLNVQKSNWEAGNTFTCSVLHEGLHNHHTEKSLSHSPGK
light: MKSQTQVFVFLLLCVSGAHGSIVMTQTPKFLLVSAGDRVTITCKASQSVSNDVAWYHQKPGQSPKLLIYYASNRYTGVPDRFTGSGYGTDFTFTISTVQAEDLAVYFCQQDYSSPYTFGGGTKLEIKRADAAPTVSIFPPSSEQLTSGGASVVCFLNNFYPKDINVKWKIDGSERQNGVLNSWTDQDSKDSTYSMSSTLTLTKDEYERHNSYTCEATHKTSTSPIVKSFNRNEC
modifications: Description of sequence: Heavy Chain; Description of sequence: Light Chain
Turning to B1, in the series with Mvt1 cells, the lung metastasis entry is on record as “significantly reduced” and the “tumor growth (tumor volume, tumor weight)” value is reported as “significantly reduced”. In the series on PD-L1, the “S100A7-induced PD-L1 expression” value was “decreases”. The “S100A7-mediated invasiveness of spheroid cells (invaded area)” value in the series with MDA-MB-231 cells [2] is recorded as “reduced”. Moreover, in series [3], the “HFD-induced body weight gain” value is “significantly inhibited” and the “visceral fat accumulation (vWAT mass)” value was “significantly inhibited”. For the same molecule, the “S100A7-mediated migration of TNBC cells” value in the series on MDA-MB-231 cells [4] is listed as “inhibits”.

The record behind these values is patent US20260209330A1, “S100A7 AS A DIAGNOSTIC MARKER AND THERAPEUTIC TARGET FOR DISORDERS” (Ohio State Innovation Foundation, priority 2022, published 2026).
